Results published in patent US20260231954A1, “PESTICIDAL ENZYMES FOR USE ON NEMATODES, INSECTS, AND MOLLUSKS” (priority 2023, published 2026).

Legend:
[1] = tested on: SCN juveniles (SCN HG type 1.2.5.7, race 2); test: In-vitro plate assay of SCN juvenile viability (difference in percent death); type: in vivo; conditions: Table 32, 40 μL per well of each treatment, water only 4%
Procedure: (§1) SCN eggs were obtained from SCN HG type 1.2.5.7, race 2. Eggs were rinsed 4 times with sterile water. Eggs were transferred to a 6-well plate and resuspended in 5 mL of 3 mM ZnSO4. The plate was sealed with parafilm, covered with aluminum foil to prevent light from entering the plate, and placed in a plate growth chamber at 25° C. and 80% relative humidity. After 6-7 days of incubation, an estimate of hatched SCN juveniles was obtained from the well to determine the overall number of juveniles per 10 μL. The concentration of the hatchery solution was adjusted until it consisted of 20-30 juveniles per 10 μL.
Potato dextrose agar media containing chloramphenicol and chlortetracycline was prepared and added to sterile twenty-four-well cell culture plates (1 mL per well). The plates were divided according to the pre-determined N-value for each treatment (N=12-24). Each treatment being tested was added to the agar surface within each well at a rate of 40 μL per well. Without allowing the treatments to dry, 10 μL of the prepared nematode mixture was added to the agar surface within each well.
To quantify the treatments' effects on nematode viability, the nematodes were examined under a dissecting microscope at 20× magnification. Initial (TO) values for the number of live juveniles, number of dead juveniles and total number of juveniles were recorded immediately after preparation of each well. The plates were then wrapped in parafilm around the open edge, encased in aluminum foil, and placed in secondary containment. The secondary containment was placed in a plant growth chamber at 25° C. and 80% relative humidity. At approximately 24 hours post addition of juveniles, the plates were evaluated, and the number of live juveniles, dead juveniles and total number of juveniles were recorded (T24).
The difference in percent death at T0 vs T24 was calculated by subtracting the percent dead at TO [(#dead juveniles/total #juveniles)×100] from the percent dead at T24 [(#dead juveniles/#total juveniles originally present)×100]. […] If the ANOVA indicated a significant difference existed among treatments, Tukey's HSD post hoc test was used to perform a pairwise contrast between each set of treatments. Different letters denote statistically significant results at P<0.05.
as §1, with “from” for “from SCN”, “rinsed four” for “rinsed 4”, “and 80-90%” for “and 80%”, “from each” for “from the”
Potato dextrose agar media containing chloramphenicol and chlortetracycline was prepared and added to sterile twenty-four-well cell culture plates (1 mL per well). The plates were divided according to the pre-determined N-value for each treatment (N=24). […]
To quantify the treatments' effects on nematode viability, the nematodes were examined under a dissecting microscope at 20× magnification. Initial (TO) values for the number of live juveniles, number of dead juveniles and total number of juveniles were recorded. […]

[2] = tested on: soybean cyst nematode (SCN, Heterodera glycines); test: Soybean cyst nematode reproduction on soybean after seed treatment, controlled environment (cysts per gram of root tissue or per plant); type: in vivo; conditions: for % Comparison to Control (figure in parentheses): change vs base control; for Average cysts per g of root tissue: soybean 2830E3
[3] = tested on: Btk resistant Diamondback moth; test: Diet-surface overlay (DSO) bioassay on Btk resistant Diamondback moth; type: in vivo, Plutella xylostella; conditions: 7 days
Procedure: (§2) Diet-surface overlay bioassays are conducted with artificial diet mixes without antibiotics in 1.5 cm^2 cell bioassay trays(s). Artificial diets are commercially available from Southland Products Inc. Diets were prepared by dispersing 0.5 mL of molten diet to each 1.5 cm^2 cell. After solidification, 0.1 mL enzyme treatments were dispersed on top of diet in each cell and the tray was gently rocked in an orbital shaker to spread the liquid uniformly over the diet surface. Trays were placed under clean airflow until the surface of each cell was uniformly dried. One or two 16-cell sections were used per treatment (the number in larvae treated was 16 or 32).
(§3) One healthy first instar larva was placed into each treatment cell, each 16-cell section was covered with a re-sealable lid and incubated at 27° C. and light-dark period of 16:8 hrs. After 7 days, and according to the species, the number of individuals in the following developmental categories was recorded.
(§4) Diamondback moth (Plutella xylostella): Dead Larva (lack of movement), Larva Stage I (≤50% relative size), Larva Stage II (100% relative size, full size), Early Pupa (light green color), Late Pupa (light-dark brown color), and Adult.
(§5) Negative/untreated controls were treated with filtered water and positive controls were treated with lethal doses of Bacillus thuringiensis subsp. Kurstaki (Btk) spores at 1000 ppm.
However, both neutral proteases reduced the number of individuals reaching adult stage.
The effect of lipase (10× enzyme rate) and free lipases were tested on a Diamondback Moth Btk resistant strain. Free Lipases from Burkholderia cepacia (Bc) and Pseudomonas fluorescens (Pf) were tested along with Lipase (SEQ ID NO: 76) and the results are shown below in Table 45.

[4] = tested on: Diamondback moth (Plutella xylostella); test: Diet-surface overlay (DSO) bioassay on Diamondback moth; type: in vivo; conditions: 7 days
Procedure: as §2, §3, §4, §5

[5] = Table 45, number of individuals, n = 32
[6] = Table 44, number of individuals, n = 16

B1: Pseudomonas sp. esterase (SEQ ID NO: 248): Pseudomonas sp. Esterase (protein, listed as Pseudomonas sp.)
chain: MTEPLILQPVKPADACVIWLHGLGADRYDFLPVAEALQEILLSTRFVLPQAPTRPVTINGGYAMPSWYDIKAMSPARAIDRDELEASADRIIELIEEQRSSGIDASRIFLAGFSQGGAVVYHTAFLKWQGPLGGVLALSTYAPTFSDELELSASQQRIPVLSLHGQFDNVVQNSMGRTAYEYLKAHGVTVTWQEYPMEHEVLPEEIRDIGTWLSERLR
- Difference in Percent Death of Nematodes for 0 to 24 Hours [1]: 22%
- Difference in Percent Death of Nematodes for 0 to 24 Hours ([1]; listed as Pseudomonas sp. esterase free enzyme (SEQ ID NO: 248)): 22%
- % Comparison to Control (figure in parentheses) ([2]; Table 16): −10%
- Average cysts per g of root tissue ([2]; Table 16, free enzyme or 4x concentrate seed treatment): 220.2 cysts per g of root tissue

B2: Lipase (SEQ ID NO: 76): Recombinant lipase from Bacillus thuringiensis; Bacillus thuringiensis Lipase (Lip1) (protein, listed as Bacillus thuringiensis)
chain: MRLMRRCVALLIVFFIMAPMISTNVRAGVVKELKTGFPDQEVFTPGEWFLGQKPANYDENKPPILFVQGRNGNADSWYGKTVYHDINDMYDYALKAGYQTVFIQLYDAAGKGSASQWDNGKLLAQKLEEIYNHFGKKVNIVAHSKGGIDTQAALVGYGANRFVGNVITLATPHHGSNLADLSYSWWAGWLASILGQKDDGTYSLQMGEMAKFRSTIDNNPAAKLNRYYTVTGTSWGPVFSALSMGGLYLSSYGSNDGLVNECSAKLPYGTHLFTDSRFDHDNIRKGSAVFARIEPYLRTANVPVPALVASSTSSNENIEQLNTTSNQSILGGELPQNQWIEQTVAVDKKAEGIVSILTASSDVEVQMISPKGKVYTNKDSVITTGEGESFFGGATIRTFKFDKMDVGEWKVKMMTKQSKDAYLVVSDYKTGAPFVLQMPTKVKANKSEYKLKKSPVAPEMKGDLSITVRVVNKEGKLVSEFNELQNVNNNTFTGALKNIKQPGVYNVTMDIKGMNKEGKSYSRTIVKSVYVEK
modifications: Lipase (Lip1 H192)
- Effect on survival and development of Btk resistant Diamondback moth (in words) ([3]; DSO bioassay): clear delay of larva-pupa development
- Dead Larva ([3]; Table 45, lipases, number of individuals, n = 32, Btk resistant strain per text): 1
- Adult [3, 5]: 0
- Early Pupa [3, 5]: 10
- Larva Stage I [3, 5]: 9
- Larva Stage II [3, 5]: 12
- Late Pupa [3, 5]: 0
- Effect on survival and development of Diamondback moth (in words) ([4]; DSO bioassay): delayed larva-pupa development
- Dead Larva ([4]; Table 44, lipases, number of individuals, n = 16): 0
- Adult [4, 6]: 0
- Early Pupa [4, 6]: 3
- Larva Stage I [4, 6]: 0
- Larva Stage II [4, 6]: 0
- Late Pupa [4, 6]: 13

B3: Bacillus thuringiensis Lipase 2 (SEQ ID NO: 251): Bacillus thuringiensis Lipase 2 (protein, listed as Bacillus thuringiensis)
chain: EVVKELGKGFPDTEVFTPGEWFLGQKPANYDENKPPILFVQGRNGNADSWYGKTVYHDINDMYDYALKAGYQTVFIQLYDAAGKGSASQWDNGKLLAQKLEEIYNYFGKKVNIVAHSKGGIDTQAALVEYGANRFVGNVITLATPHHGSNLADLSYSWWAGWLASILGQKDDGTYSLQIGEMAKFRSIIDNNPAAKLNRYYTATGTSWGPTFSALSMGGLYLSSYGSNDGLVNEWSAKLSYGTHLFTDSRFDHDNIRKGSAVFARIEPYLRTTNVGLPALVASSTSSNEDLEQLNTTSNQNILGGELPQNQWIEQSISVDKKAEGIVSVLTASSDVEVQMVSPKGKIYANKDSAITTGEGESFFNRATIRTFKFDKLEVGEWKIKMMAKQSKDAYLVVSDYKDDAPFVLRMPTKVKINKPEYKLKKSPVAPEMKGDLSITVRVVNKEGKLVSEFNELQNVNTNTFTGALKDIKQPGVYNVTMDIKGMNKEGKPYNRTIVKSVYVEK
- % Comparison to Control (figure in parentheses) ([2]; Table 20): −43%
- Average cysts per g of root tissue ([2]; Table 20, free enzyme seed treatment): 264.3 cysts per g of root tissue

B4: Collagenase B (SEQ ID NO: 208): Bacillus pumulis Collagenase B (ColB) (protein, listed as Bacillus pumulis, listed as Bacillus pumilus)
chain: IVNGKRVITKKPELLAPAGNLEKLKIAVHYGADAVFIGGQEYGLRSNADNFTIEEIAEGVEFAKKYGAKIYVTTNIFAHNENMDGLEDYLKALGDANVAGIIVADPLIIETCRRVAPNVEVHLSTQQSLSNWKAVQFWKEEGLDRVVLARETSALEIREMKEKVDIEIESFIHGAMCIAYSGRCVLSNHMTARDSNRGGCCQSCRWDYDLYQTDGANAVALYGEEDAPFAMSPKDLKLIESIPKMIEMGIDSLKIEGRMKSIHYVATVVSVYRKVIDAYCADPENFVIQKEWLEELDKCANRDTATAFFEGTPGYEEQMFGEHAKKTTYDFVGLVLNYDEDTQMVTLQQRNFFKKGDEVEFFGPEIENFTHTIETIWDEDGNELDAARHPLQIVKFKLDKKIYPSNMMRKGK
modifications: Collagenase B (ColB)
- % Comparison to Control (figure in parentheses) ([2]; Table 22): −85%
- Average cysts per g of root tissue ([2]; Table 22, free enzyme seed treatment): 70.9 cysts per g of root tissue
